Reference: publication PMC10099132, “Sequence and Structural Motifs Controlling the Broad Substrate Specificity of the Mycobacterial Hormone-Sensitive Lipase LipN” (ACS Omega, 2023)

Key:
Assay in all cases: purified protein, by the assay type
Set-up in all cases: p-nitrophenyl ester hydrolysis, absorbance at 412 nm, Michaelis-Menten fit
[1] = substrate: CC(=O)Oc1ccc([N+](=O)[O-])cc1
Excerpt: (§1) (A) Classic p-nitrophenyl ester substrates were used as conformation for fluorogenic substrate measurements (Figure 1). (B) Catalytic efficiency comparison of MmLipN against p-nitrophenyl substrates. Catalytic efficiency values (kcat/Km) are given ± SD. (C, D) Kinetic activity of MmLipN against (C) short alkyl ester substrates: p-nitrophenyl acetate (C2) and p-nitrophenyl butyrate (C4) and (D) longer alkyl ester substrates: p-nitrophenyl valerate ([…]), p-nitrophenyl octonoate (C8), and p-nitrophenyl myristate (C14). Data points were fitted to the Michaelis–Menten equation and are shown ± SD.

[2] = substrate: CCCCC(=O)Oc1ccc([N+](=O)[O-])cc1
Excerpt: as §1

[3] = substrate: CCCCCCCC(=O)Oc1ccc([N+](=O)[O-])cc1
Excerpt: as §1

[4] = substrate: CCCCCCCCCCCCCC(=O)Oc1ccc([N+](=O)[O-])cc1
Excerpt: as §1

B1: MmLipN (LipN from M. marinum) (Mycobacterium marinum M) (protein)
chain: MTNSLPGETDLHPETVHATMSWLSRVQNTVTVVGAKVIPWVPDVAKRLITRGRSVIIDGNTLDPALQLMLSGMRVVGLDGLVIDDDLAASRAHMREAMLGFPGPQIHVDVEELTLPGPAGDISARHYRPPGDAAAPLLVFYHGGGWALGDLDTHDAVCRLTCRDAGIHVLAIDYRLSPEDRAPAAIDDAFAAFEWAHAHAAELGALPGRVAVGGDSAGGNLAAVVSQLARDSGGPAPIFQWLIYPRTDFAGRTRSASLFARGFLLTKRDIDWFHSQYLKGSGIEPTDPRVSPLRAESLAGLAPALIAVAGFDPLRDEGENYATALRAAGTPVDLRAMGSLTHGFLNLFPLGGGCAAATSELISALRAHLTRV
notes: E. coli LOBSTR (DE3); Ni-NTA
Km [1]: 2400 ± 1200 µM | kcat [1]: 94 ± 8 s⁻¹ | kcat/Km [1]: 39000 ± 10000 M⁻¹ s⁻¹ | Km [2]: 250 ± 70 µM | kcat [2]: 15 ± 1 s⁻¹ | kcat/Km [2]: 59000 ± 8000 M⁻¹ s⁻¹ | Km [3]: 410 ± 330 µM | kcat [3]: 1.1 ± 0.2 s⁻¹ | kcat/Km [3]: 2700 ± 1100 M⁻¹ s⁻¹ | Km [4]: 120 ± 50 µM | kcat [4]: 0.28 ± 0.02 s⁻¹ | kcat/Km [4]: 2300 ± 400 M⁻¹ s⁻¹
